This passage reports Ki results from patent publication EP0833843B1.

Usually Ki stands for the equilibrium dissociation constant of an inhibitor or competing ligand from its target.

The assay addresses MC1-R (melanocyte-stimulating hormone receptor). The assay is described as follows: inhibition of MC1-R activation by the purified recombinant ASP preparation; assay details not given (Ollmann et al., in preparation).

With “Recombinant mouse agouti signal protein (ASP) (ligand)”, the Ki came out at 0.22 nM.
